These results are taken from publication PMC7967050.

This test addresses Recombinant human CD38 extracellular domain (amino acids 43–300, hCD38-ECD) (human) (UniProt P28907). As to the kind of experiment: BLI; Octet Red96, room temperature; biotin conjugated hCD38-ECD captured on SA biosensor; scFv in PBS, 0.02% Tween-20, 0.05% BSA, pH 7.4; association 300 s, dissociation 1200 s; 1:1 Langmuir model; for RP02 (biphasic dissociation) only the initial 0-330 s fitted, apparent KD. For orientation: Biolayer interferometry detects binding as a change in optical thickness at a sensor tip.

B1: anti-CD38 scFv antibody RP02 (scFv, V domains shown)
VH: PAQLVESGPGLVKPSGTLSLTCAVSGGSISSSNWWSWVRQPPGKGLEWIGEIYHSGSTNYNPSLKSRVTISVDKSKNQFSLKLSSVTAADTAVYYCAREDYYYYMDVWGKGTTVTVQS
VL: QSVLTQPPSVSAAPGQKVTISCSGSSSNIGNNYVSWYQQLPGTAPKLLIYDNNKRPSGIPDRFSGSKSGTSATLGITGLQTGDEADYYCGTWDSSLSAGVFGGGTKLTVL
Take B1: the Kd was 8.6 nM.
